Laboratory results from paper PMC11300487, “C-phycocyanin reinforces autophagy to block pulmonary fibrogenesis by inhibiting lncIAPF biogenesis” (Archives of Pharmacal Research, 2024).

Biological target: T1, C-phycocyanin (Spirulina platensis, UniProt P72509 1-162; P72508 1-172)
T1 construct: C-phycocyanin alpha subunit, Spirulina platensis; C-phycocyanin beta subunit, Spirulina platensis; the source organism is told in the introduction only; also called C-PC; source: bought: Aladdin, Shanghai
Test: SPR; equilibrium dissociation constant; who was immobilised and the conditions not given
Details: both partners purified

Kd: 683 nM
B1: activating transcription factor 3 (natural protein, UniProt P18847 1-181, looked up)
chain: MMLQHPGQVSASEVSASAIVPCLSPPGSLVFEDFANLTPFVKEELRFAIQNKHLCHRMSSALESVTVSDRPLGVSITKAEVAPEEDERKKRRRERNKIAAAKCRNKKKEKTECLQKESEKLESVNAELKAQIEELKNEKQHLIYMLNLHRPTCIVRAQNGRTPEDERNLFIQQIKEGTLQS
notes: ATF3 as used in the SPR experiment; the ATF3 protein used there is not described; also called ATF3
